Consider two molecules from US11015206B2, “Compositions and methods comprising sequences having hydroxyphenylpyruvate dioxygenase (HPPD) activity” (PIONEER HI-BRED INTERNATIONAL, INC., priority 2014, dated 2021).

Assay type in all cases: biochemical, Z. mays
The test system of data set [1] is 4-hydroxyphenylpyruvate dioxygenase (HPPD). The data set is described as follows: ON rate ratio: HPPD reaction rate with vs without inhibitor in the 70 to 90 second interval. To be noted: Table 5; tembotrione. In outline: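 Indicator of inhibitor on-rate: reaction velocity in the 70 to 90 second window with 4 μM inhibitor divided by that without. Reactions contained 100 μM HPP and 60 or 120 nM HPPD; slower binding gives a larger ratio.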

For data set [2] the test system is unchanged. Nature of the data set: OFF rate ratio: release of inhibitor from pre-formed enzyme-inhibitor complex. To be noted: Table 5; tembotrione. In outline: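 Inhibitor release from pre-formed complex (enzyme 7.2 μM, inhibitor 8 μM, 1 h RT) tracked as accelerating HPPD activity at 320 nm over 12 min, coupled via 50 nM HGD with 100 μM HPP at pH 7. OFF rate ratio: steady-state velocity relative to uninhibited initial velocity.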

The test system is the same in data set [3]. Nature of the data set: Insensitivity parameter (ON × OFF) and trait fitness (ON × OFF × kcat/KM or × kcat). To be noted: for ON × OFF × kcat, Value / ON × OFF × kcat, Fold vs wt / ON × OFF, fold vs wt / ON × OFF (parameters with tembotrione): Table 5, tembotrione; for ON × OFF × kcat, Fold vs wt / ON × OFF, fold vs wt: fold vs maize wild type HPPD; for ON × OFF (parameters with tembotrione): insensitivity parameter. The method, boiled down: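 Trait fitness combines catalysis and insensitivity as kcat/KM × ON rate ratio × OFF rate ratio. The insensitivity parameter is the product of ON and OFF rate ratios, used in place of KD because the ON rate ratio is inverse.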

For data set [4] the test system is unchanged. The data set is described as follows: Estimate of kcat from initial rate at saturating hydroxyphenylpyruvate without inhibitor (ON rate ratio assay). To be noted: Table 5; single substitutions in Round 7 variant 9070 (SEQ ID NO:2); estimate from initial rate at saturating hydroxyphenylpyruvate without inhibitor. In outline:
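kcat was estimated from the initial reaction rate with known enzyme level (60 or 120 nM HPPD). Hydroxyphenylpyruvate was at a saturating 100 μM, with no inhibitor present.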

The test system is the same in data set [5]. Nature of the data set: HPPD activity coupled assay with HGD; substrate saturation kinetic parameters (kcat, KM). Conditions: Table 6; for kcat: single substitutions in SEQ ID NO:2. As to the method: Wild type and shuffled variant genes were cloned into pVER7062, a modified version of pET24a(+)(Novagen), which places six histidine residues at the N-terminus of the expressed protein. Vectors were electroporated into E. coli host strain BL21(DE3). Cells were grown at 30 C in rich medium such as 2×YT containing the selection antibiotic, kanamycin. At a density of about 0.6 OD600, IPTG was added to 0.2 mM, the temperature was reduced to 16 C and growth continued for another 24 hrs. Cells were harvested by centrifugation and stored at −80 C. Cell pellets were lysed in BPER (Pierce) protein extraction reagent containing 0.2 mg/ml lysozyme, 1 mM dithiothreitol, protease inhibitor cocktail (Sigma, bacterial cocktail) and endonuclease. Insoluble cellular debris was removed by centrifugation. HPPD protein was purified from the soluble protein solution by affinity chromatography on the nickel form of nitrilotriacetic acid (Ni-NTA) resin (Qiagen). Protein concentrations were determined by the Bradford method, as supplied by Bio-Rad.
HPPD catalyzes the conversion of 4-hydroxyphenylpyruvate (HPP) to homogentisate (FIG. 17). […] However, the product of the ensuing reaction in tyrosine metabolism, maleylacetoacetate, absorbs strongly at 320 nm. Furthermore, the enzyme catalyzing that reaction is also a dioxygenase having similar mechanism and buffer requirements as HPPD, making homogentisate dioxygenase (HGD) an ideal partner in a coupled assay, as shown.
The HDG gene from Pseudomonas aeruginosa (Amaya (2004) Arch Biochem Biophys 421, 135-142) was cloned into pVER7062 and electroporated into E. coli strain BL21(DE3). The enzyme was produced by methods similar to those described for HPPD. The purified enzyme has a KM for homogentisate of 23 μM and a kcat of 100/sec, properties highly suited for instantly converting the homogentisate produced by HPPD to maleylacetoacetate.
HPPD activity was measured by placing an aliquot (e.g., 6 μl) of the substrate HPP at 50-fold the desired final concentration into the wells of a low UV-absorbing assay plate. Reactions were started by adding a mixture (e.g., 294 μl) containing 25 mM Hepes, pH 7, 2 mM ascorbate, 10 μM FeSO4, 1 to 100 μM HPP, 50 nM HGD and 5 to 240 nM HPPD. Absorbance at 320 nm was monitored continuously in a plate-reading spectrophotometer (Spectramax, Molecular Devices).
The catalytic performance of wild-type HPPD and variants generated by shuffling was assessed by determining the substrate saturation kinetic parameters. The Michaelis-Menten kinetics protocol of the Spectramax software was customized for HPP concentrations ranging from 3.33 μM to 100 μM. Reaction rates were measured as described above for each concentration of HPP. The software returns values of KM and Vmax using the Lineweaver-Burke transformation of the Michaelis-Menten equation.

The mark [6] stands for this setting: DKN (diketonitrile form of isoxaflutole).
Setting [7] is: DKN (isoxaflutole diketonitrile).

Changes are numbered by the printed parent chain. Names and notes keep the numbering of the source.

B1: 206Q: single substitution P206Q in SEQ ID NO:2 (protein)
chain: MGPTPTATAAGAAVAAASAAEQAAFRLVGHRNFVRFNPRSDRFQTLAFHHVELWCADAASAAGRFSFALGVPLAARSDLSTGNSAHASLLLRSGSLSLLFTAPYAHGADAATAALPSFSAAAARRFAADHGLAVRAVALRVADAEDAFRASVAAGARPAFGPVDLGRGFRLAEVELYGDVVLRYVSYPDGAAGEPFLPGFEGVASQGAADYGLSRFDHIVGNVPELAPAAAYMAGFTGFHEFAEFTTEDVGTTESGLNSMALANNSENVLLPLNEPVHGTKRRSQIQTFLDHHGGPGVQHIALASDDVLRTLREMRARSAMGGFEFLPPPLSDYYDGVRRCAGDVLTEAQINECQELGVMVDRDDQGVLLQIFTKPVGDRPTFFLEIIQRIGCMEKDEKGQEYQKGGCGGFGKGNFGQLFKSIEDYEKSLEAKQAAAAATAQGS
modifications: Zea mays variant form created by artificial means.
With B1, in data set [1], the “ON ratio (parameters with tembotrione)” value was found to be 0.74. For the same molecule, the “OFF ratio (parameters with tembotrione)” value in data set [2] worked out at 0.21. For the same molecule, the “Insensitivity parameter, ON × OFF” value is 0.26 in data set [3] (setting [6]); 0.46 in data set [3] (Mesotrione, Table 6); 0.53 in data set [3] (Sulcotrione); 0.19 in data set [3] (Tembotrione); 0.27 in data set [3] (Topramezon). The “ON × OFF × kcat/km fold vs Round 7, variant 9070” value in data set [3] (setting [7]) is reported as 1.2; in data set [3] (Sulco (sulcotrione)), 1.0; in data set [3] (Topra (topramezone)), 1.1; in data set [3] (meso (mesotrione)), 1.1; in data set [3] (tembo (tembotrione)), 1.4. Also, the “ON × OFF × kcat, Value” in data set [3] came to 5.57. The “ON × OFF × kcat, Fold vs wt” value in data set [3] turned out to be 5.20. Besides, the “ON × OFF, fold vs wt” value in data set [3] is 30.8. The “ON × OFF (parameters with tembotrione)” value in data set [3] is 0.16. The kcat in data set [4] was 0.59 s⁻¹; in data set [5], 1.11 s⁻¹. For the same molecule, the Km in data set [5] was found to be 2.63 µM.

B2: 432K: single substitution A432K in SEQ ID NO:2 (protein)
chain: B1 chain with Q206P, A432K
modifications: Zea mays variant form created by artificial means.
B2: the “ON ratio (parameters with tembotrione)” value in data set [1] is 0.76. The “OFF ratio (parameters with tembotrione)” value in data set [2] was found to be 0.17. The “Insensitivity parameter, ON × OFF” value amounted to 0.26 in data set [3] (setting [6]); 0.52 in data set [3] (Mesotrione, Table 6); 0.59 in data set [3] (Sulcotrione); 0.21 in data set [3] (Tembotrione); 0.29 in data set [3] (Topramezon). In addition, the “ON × OFF × kcat/km fold vs Round 7, variant 9070” value was 1.6 in data set [3] (setting [7]); 1.5 in data set [3] (Sulco (sulcotrione)); 1.5 in data set [3] (Topra (topramezone)); 1.6 in data set [3] (meso (mesotrione)); 1.4 in data set [3] (tembo (tembotrione)). Also, the “ON × OFF × kcat, Value” in data set [3] is 4.13. Besides, the “ON × OFF × kcat, Fold vs wt” value in data set [3] is 3.86. Also, the “ON × OFF, fold vs wt” value in data set [3] came to 25.7. In addition, the “ON × OFF (parameters with tembotrione)” value in data set [3] came out at 0.13. The kcat was 0.525 s⁻¹ in data set [4] and 1.12 s⁻¹ in data set [5]. Also, the Km in data set [5] came out at 2.08 µM.

For orientation: kcat means the number of substrate molecules converted per active site and unit of time at saturation. The term Km denotes the substrate concentration at which the rate is half of its maximum.
